Assay results reported in US20250230248A1 (TAVOTEK BIOTHERAPEUTICS HONG KONG, published 2025).

Assays:
[1] = target: T1, cMET extracellular domain (ECD) (UniProt P08581 25-932, limits assumed); assay: ELISA on cMET ECD, FIG. 3A
T1 construct: extracellular domain; Probably the same reagent as recombinant human cMET; also called cMET ECD

[2] = target: T1, cMET extracellular domain (ECD); assay: blocking of HGF binding to cMET ECD, ELISA, FIG. 3F
[3] = target: T2, EGFR on HCC827 cells (UniProt P00533 25-1210); assay: blocking of EGF binding to EGFR on HCC827 cells, FACS, FIG. 8B
T2 construct: whole, on cells; human tumour cell line; also called EGFR (HCC827)

[4] = target: T3, recombinant human EGFR ECD (human, UniProt P00533 25-645); assay: ELISA on EGFR ECD, FIG. 2A
T3 construct: extracellular domain; also called EGFR extracellular domain (ECD)

[5] = target: T2, EGFR on HCC827 cells; assay: blocking of EGF-EGFR binding, HCC827 cells, gMFI, FIG. 2D

T1 sequence (P08581 25-932 limits assumed): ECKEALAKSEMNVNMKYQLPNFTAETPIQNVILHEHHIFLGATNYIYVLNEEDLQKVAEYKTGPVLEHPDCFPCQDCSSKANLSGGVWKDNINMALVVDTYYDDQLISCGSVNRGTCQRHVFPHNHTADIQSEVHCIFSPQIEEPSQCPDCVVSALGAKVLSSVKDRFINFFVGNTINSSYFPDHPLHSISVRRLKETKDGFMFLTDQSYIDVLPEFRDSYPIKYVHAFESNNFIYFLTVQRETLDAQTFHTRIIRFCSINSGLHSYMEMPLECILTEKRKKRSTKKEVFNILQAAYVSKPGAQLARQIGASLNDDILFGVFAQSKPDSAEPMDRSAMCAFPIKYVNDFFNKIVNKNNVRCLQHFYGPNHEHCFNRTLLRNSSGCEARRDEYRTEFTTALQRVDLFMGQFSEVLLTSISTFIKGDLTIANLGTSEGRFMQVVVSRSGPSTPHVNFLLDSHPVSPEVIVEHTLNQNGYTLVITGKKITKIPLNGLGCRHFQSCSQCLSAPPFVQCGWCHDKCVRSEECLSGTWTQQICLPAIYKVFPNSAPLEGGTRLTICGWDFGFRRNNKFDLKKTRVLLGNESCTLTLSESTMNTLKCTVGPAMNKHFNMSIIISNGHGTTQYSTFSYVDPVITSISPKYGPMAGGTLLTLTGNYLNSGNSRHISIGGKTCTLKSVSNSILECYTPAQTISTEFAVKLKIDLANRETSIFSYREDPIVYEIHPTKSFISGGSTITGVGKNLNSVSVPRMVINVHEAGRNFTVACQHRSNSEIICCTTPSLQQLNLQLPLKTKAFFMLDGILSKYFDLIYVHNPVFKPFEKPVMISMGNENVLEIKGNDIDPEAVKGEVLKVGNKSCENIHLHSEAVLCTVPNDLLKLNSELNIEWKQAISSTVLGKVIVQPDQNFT

Binder	EC50 [1] [µg/mL]	EC50 [2] [µg/mL]	EC50 [3] [nM]	further results
TV4 (antibody, V domains shown, anti-cMET mAb hit; also called cMET TVH2 / cMET TVL2) VH: QVQLQESGPGLVKPSGTLSLTCAVSGYIFTAYTMHWVRQPPGKGLEWIGGIKPNNGLANYNPSLKSRATLSVDKSKNQASMKLSSVTAADTAVYYCARSEITTEFDYWGQGTLVTVSS VL: DIQMTQSPSSLSASVGDRVTITCRASESVDSYANSFMHWYQQKPGKAPKLLIYRASNLESGVPSRFSGSGSGTDFTLTISSLQPEDFATYYCQQSKEDPLTFGGGTKVEIK	~0.018	~0.108		
7D VH6×TV4 bispecific antibody (bispecific antibody, not shown: a dimerising Fc or GST, also called EGFR×cMet hit; candidate BsAb) not shown VH: QVQLQESGPGLVKPSGTLSLTCAVSGYIFTAYTMHWVRQPPGKGLEWIGGIKPNNGLANYNPSLKSRATLSVDKSKNQASMKLSSVTAADTAVYYCARSEITTEFDYWGQGTLVTVSS VL: DIQMTQSPSSLSASVGDRVTITCRASESVDSYANSFMHWYQQKPGKAPKLLIYRASNLESGVPSRFSGSGSGTDFTLTISSLQPEDFATYYCQQSKEDPLTFGGGTKVEIK			~0.63	
7D VH4×TV4 bispecific antibody (bispecific antibody, not shown: a dimerising Fc or GST, also called EGFR×cMet hit; candidate BsAb) not shown VH: QVQLQESGPGLVKPSGTLSLTCAVSGYIFTAYTMHWVRQPPGKGLEWIGGIKPNNGLANYNPSLKSRATLSVDKSKNQASMKLSSVTAADTAVYYCARSEITTEFDYWGQGTLVTVSS VL: DIQMTQSPSSLSASVGDRVTITCRASESVDSYANSFMHWYQQKPGKAPKLLIYRASNLESGVPSRFSGSGSGTDFTLTISSLQPEDFATYYCQQSKEDPLTFGGGTKVEIK			~0.93	
Onartuzumab (antibody, V domains shown, also called cMET OVH0 / cMET OVL0) VH: EVQLVESGGGLVQPGGSLRLSCAASGYTFTSYWLHWVRQAPGKGLEWVGMIDPSNSDTRFNPNFKDRFTISADTSKNTAYLQMNSLRAEDTAVYYCATYRSYVTPLDYWGQGTLVTVSS VL: DIQMTQSPSSLSASVGDRVTITCKSSQSLLYTSSQKNYLAWYQQKPGKAPKLLIYWASTRESGVPSRFSGSGSGTDFTLTISSLQPEDFATYYCQQYYAYPWTFGQGTKVEIK	~0.025	~0.093		
gp120 mAb (antibody, V domains shown, also called anti-gp120 mAb v12; null control Ab) VH: QVQLVQSGAEVKKPGASVKVSCQASGYRFSNFVIHWVRQAPGQRFEWMGWINPYNGNKEFSAKFQDRVTFTADTSANTAYMELRSLRSADTAVYYCARVGPYSWDDSPQDNYYMDVWGKGTTVIVSS VL: EIVLTQSPGTLSLSPGERATFSCRSSHSIRSRRVAWYQHKPGQAPRLVIHGVSNRASGISDRFSGSGSGTDFTLTITRVEPEDFALYYCQVYGASSYTFGQGTKLERK				binding result [4]: no binding
EV1 (antibody, V domains shown, anti-cMET mAb hit; also called cMET EVH1 / cMET EVL1) VH: QVQLVQSGAEVKKPGASVKVSCKASGYTFTDYYMHWVRQAPGQGLEWMGRVNPNRGGTTYAQKFQGRVTMTTDTSISTAYMELSRLRSDDTAVYYCARANWLDYWGQGTTVTVSS VL: DIQMTQSPSSLSASVGDRVTITCRVSQSVSSIYLHWYQQKPGKAPKLLIYSTSNLQSGVPSRFSGSGSGTDFTLTISSLQPEDFATYYCQVYSGYPLTFGGGTKVEIK	~0.0175	~0.093		
7D VH6×EV1 bispecific antibody (bispecific antibody, not shown: a dimerising Fc or GST, also called EGFR×cMet hit; candidate BsAb) not shown VH: QVQLVQSGAEVKKPGASVKVSCKASGYTFTDYYMHWVRQAPGQGLEWMGRVNPNRGGTTYAQKFQGRVTMTTDTSISTAYMELSRLRSDDTAVYYCARANWLDYWGQGTTVTVSS VL: DIQMTQSPSSLSASVGDRVTITCRVSQSVSSIYLHWYQQKPGKAPKLLIYSTSNLQSGVPSRFSGSGSGTDFTLTISSLQPEDFATYYCQVYSGYPLTFGGGTKVEIK			~0.63	
7D VH4×EV1 bispecific antibody (bispecific antibody, not shown: a dimerising Fc or GST, also called EGFR×cMet hit; candidate BsAb) not shown VH: QVQLVQSGAEVKKPGASVKVSCKASGYTFTDYYMHWVRQAPGQGLEWMGRVNPNRGGTTYAQKFQGRVTMTTDTSISTAYMELSRLRSDDTAVYYCARANWLDYWGQGTTVTVSS VL: DIQMTQSPSSLSASVGDRVTITCRVSQSVSSIYLHWYQQKPGKAPKLLIYSTSNLQSGVPSRFSGSGSGTDFTLTISSLQPEDFATYYCQVYSGYPLTFGGGTKVEIK			~0.81	
TV1 (antibody, V domains shown, anti-cMET mAb hit; also called cMET TVH1 / cMET TVL0) VH: QVQLVQSGAEVKKPGSSVKVSCKASGYIFTAYTMHWVRQAPGQGLEWMGGIKPNNGLANYAQKFQGRVTITADESTSTAYMELSSLRSEDTAVYYCARSEITTEFDYWGQGTLVTVSS VL: DIVMTQSPDSLAVSLGERATINCKSSESVDSYANSFLHWYQQKPGQPPKLLIYRASTRESGVPDRFSGSGSGTDFTLTISSLQAEDVAVYYCQQSKEDPLTFGGGTKVEIK	~0.0185	~0.122		
7D VH1 (VHH, also called 7D VH hit; EGFR VHO mAb) VHH: EVQLVESGGGVVRPGGSLRLSCAASGRTSRSYGMGWFRQAPGKEREFVSGISWRGDSTGYADSVKGRFTISRDNAKNSVDLQMNSLRAEDTALYYCAAAAGSAWYGTLYEYDYWGQGTQVTVSS				EC50 [5]: ~0.025 µg/mL
